Experimental findings from US20070105152 are described below.

Read-outs that look alike come from different tables or passages of the source.

Data set [1] concerns T1, AcSTGG(AcK)APR.
T1 sequence: STGGKAPR

For data set [2], the system named is T2, AcTGG(AcK)AP.
T2 sequence: TGGKAP

The subject of data set [3] is T3, AcSTGG(AcK)AP.
T3 sequence: STGGKAP

For data set [4], the system named is T4, AcTGG(AcK)APRK.
T4 sequence: TGGKAPRK

The subject of data set [5] is T5, AcGG(AcK)APRK.
T5 sequence: GGKAPRK

Data set [6] has as its system T6, AcGG(AcK)AP.
T6 sequence: GGKAP

For data set [7], the system named is T7, AcGG(AcK)APR.
T7 sequence: GGKAPR

Data set [8] relates to T8, AcTGG(AcK)APR.
T8 sequence: TGGKAPR

The subject of data set [9] is T9, AcGG(AcK)APRKQ.
T9 sequence: GGKAPRKQ

The test system of data set [10] is T10, AcKSTGG(AcK)AP.
T10 sequence: KSTGGKAP

The target in data set [11] is T11, AcGG(AcK)AP.
T11 chain: GGKAP

Data set [12] has as its target T12, AcGG(AcK)APR.
T12 chain: GGKAPR

For data set [13], the target named is T13, AcGG(AcK)APRKQ.
T13 chain: GGKAPRKQ

Data set [14] has as its target T14, AcSTGG(AcK)APR.
T14 chain: STGGKAPR

Data set [15] deals with T15, AcGG(AcK)APRK.
T15 chain: GGKAPRK

In data set [16] the target is T16, AcSTGG(AcK)AP.
T16 chain: STGGKAP

For data set [17], the target named is T17, AcTGG(AcK)AP.
T17 chain: TGGKAP

The target of data set [18] is T18, AcTGG(AcK)APR.
T18 chain: TGGKAPR

In data set [19] the target is T19, AcTGG(AcK)APRK.
T19 chain: TGGKAPRK

For data set [20], the target named is T20, AcKSTGG(AcK)AP.
T20 chain: KSTGGKAP

Consider yeast Sir2, for which the Relative kcat/Km (relative to AcTGG(AcK)APRK = 1) in the data set on AcSTGG(AcK)APR [1] was 1.6; in the data set on AcTGG(AcK)AP [2] it was 1.62; in the data set with AcSTGG(AcK)AP [3], 1.83; in the data set with AcTGG(AcK)APRK [4], 1; in the data set on AcGG(AcK)APRK [5], 2.33; in the data set with AcGG(AcK)AP [6] it was 1.51. Besides, the Relative kcat/Km (relative to AcTGG(AcK)APRK = 1) with AcGG(AcK)APR [7] came out at 2.53; in the data set on AcTGG(AcK)APR [8] it was 1.72; with AcGG(AcK)APRKQ [9] it was 2.09; in the data set with AcKSTGG(AcK)AP [10], 2.12.
With Trypanosoma brucei Sir2, the Relative kcat/Km (relative to AcTGG(AcK)APRK = 1) in the data set on AcSTGG(AcK)APR [1] worked out at 1.39; with AcTGG(AcK)AP [2] it was 0.74; in the data set on AcSTGG(AcK)AP [3], 0.59; with AcTGG(AcK)APRK [4], 1; with AcGG(AcK)APRK [5], 1.82; with AcGG(AcK)AP [6] it was 1.27. Also, the Relative kcat/Km (relative to AcTGG(AcK)APRK = 1) is 1.18 with AcGG(AcK)APR [7], 0.89 with AcTGG(AcK)APR [8], 1.43 in the data set with AcGG(AcK)APRKQ [9] and 1.81 in the data set with AcKSTGG(AcK)AP [10].

B1: SIRT2 (protein)
chain: MAEPDPSHPLETQAGKVQEAQDSDSDSEGGAAGGEADMDFLRNLFSQTLSLGSQKERLLDELTLEGVARYMQSERCRRVICLVGAGISTSAGIPDFRSPSTGLYDNLEKYHLPYPEAIFEISYFKKHPEPFFALAKELYPGQFKPTICHYFMRLLKDKGLLLRCYTQNIDTLERIAGLEQEDLVEAHGTFYTSHCVSASCRHEYPLSWMKEKIFSEVTPKCEDCQSLVKPDIVFFGESLPARFFSCMQSDFLKVDLLLVMGTSLQVQPFASLISKAPLSTPRLLINKEKAGQSDPFLGMIMGLGGGMDFDSKKAYRDVAWLGECDQGCLALAELLGWKKELEDLVRREHASIDAQSGAGVPNPSTSASPKKSPPPAKDEARTTEREKPQ
On to B1, for which the Relative kcat/Km (relative to AcTGG(AcK)APRK = 1) with AcGG(AcK)AP [11] amounted to 0.56; with AcGG(AcK)APR [12] it was 0.6; with AcGG(AcK)APRKQ [13], 0.66; with AcSTGG(AcK)APR [14], 0.93; with AcGG(AcK)APRK [15], 0.68; with AcSTGG(AcK)AP [16], 0.78. The Relative kcat/Km (relative to AcTGG(AcK)APRK = 1) with AcTGG(AcK)AP [17] was 0.55; with AcTGG(AcK)APR [18], 0.72; with AcTGG(AcK)APRK [19] it was 1; in the data set with AcKSTGG(AcK)AP [20] it was 0.59.
